Data as given in patent US20180216091A1.

B1: Listeria monocytogenes Sortase A variant D (enzyme)
chain: ANYDKDAVVGSIAVPSVDVNLLVFKGTNTANLLAGATTMRSDQVMGKGNYPLAGHHMRDESMLFGPIMKVKKGDKIYLTDLENLYEYTVTETKTIDETEVSVIDDTKDARITLITCDKPTETTKRFVAVGELEKTEKMRGSHHHHHHGS
B2: Listeria monocytogenes Sortase A variant C (enzyme)
chain: ANYDKDAVVGSIAVPSVDVNLLVFKGTNTANLLAGATTMRSDQVMGKGNYPLAGHHMRDESMLFGPIMKVKKGDKIYLTDLENLYEYTVTETKTIDETEVSVIDDTKDARITLITCDKPTETTKRFVAVGELEKTEKLTKELENKYFPSKMRGSHHHHHHGS
B3: Listeria monocytogenes Sortase A variant E (enzyme)
chain: GSIAVPSVDVNLLVFKGTNTANLLAGATTMRSDQVMGKGNYPLAGHHMRDESMLFGPIMKVKKGDKIYLTDLENLYEYTVTETKTIDETEVSVIDDTKDARITLITCDKPTETTKRFVAVGELEKTEKLTKELENKYFPSKMRGSHHHHHHGS
B4: Listeria monocytogenes Sortase A variant A (enzyme)
chain: EKDATFDFESVQLPSMTSVIKGAANYDKDAVVGSIAVPSVDVNLLVFKGTNTANLLAGATTMRSDQVMGKGNYPLAGHHMRDESMLFGPIMKVKKGDKIYLTDLENLYEYTVTETKTIDETEVSVIDDTKDARITLITCDKPTETTKRFVAVGELEKTEKLTKELENKYFPSKMRGSHHHHHHGS
B5: Listeria monocytogenes Sortase A variant B (enzyme)
chain: SVIKGAANYDKDAVVGSIAVPSVDVNLLVFKGTNTANLLAGATTMRSDQVMGKGNYPLAGHHMRDESMLFGPIMKVKKGDKIYLTDLENLYEYTVTETKTIDETEVSVIDDTKDARITLITCDKPTETTKRFVAVGELEKTEKLTKELENKYFPSKMRGSHHHHHHGS
B6: N-terminally truncated Streptococcus pyogenes sortase A (protein)
chain: MRGSHHHHHHGSVLQAQMAAQQLPVIGGIAIPELGINLPIFKGLGNTELIYGAGTMKEEQVMGGENNYSLASHHIFGITGSSQMLFSPLERAQNGMSIYLTDKEKIYEYIIKDVFTVAPERVDVIDDTAGLKEVTLVTCTDIEATERIIVKGELKTEYDFDKAPADVLKAFNHSYNQVST

target: glucose dehydrogenase containing the sortase-motif LPXTG; assay: cell-based or functional assay

**Q.** How did the maximum dE/min turn out when B1 was run?
**A.** The maximum dE/min was 0.044 dE/min.

**Q.** How did the maximum dE/min turn out when B2 was run?
**A.** The maximum dE/min was 0.113 dE/min.

**Q.** Which maximum dE/min does the source give for B3 here?
**A.** The maximum dE/min was 0.019 dE/min.

**Q.** With B4 as the binder, how does the maximum dE/min read?
**A.** Its maximum dE/min is 0.037 dE/min.

**Q.** With B5 as the binder, how does the maximum dE/min read?
**A.** The maximum dE/min was 0.026 dE/min.

target: glucose dehydrogenase harboring a LPKTA motive; assay: not given

**Q.** Which “activity with different LPKTA concentrations” value does the source give for B2 here?
**A.** The value was “The graphs show the higher activity of Listeria monocytogenes Sortase A variant C”.

**Q.** With B6 as the binder, how does the “activity with different LPKTA concentrations” value read?
**A.** The value was “a substrate inhibition effect for St.py. SrtA at concentrations higher than 300 µM”.
